Test results from PMC8556680.

B1: 17-bp consensus oligo (FAM) (dsDNA)
DNA 1: CACATCCCATAATAATG
DNA 2: CATTATTATGGGATGTG
B2: negative control oligo (FAM) (dsDNA)
DNA 1: TCCACTGCCAGGACCTTT
DNA 2: AAAAGGTCCTGGCAGTGG

Tests used:
[1] = biological target: T1, GST-ZNF410 ZF1-ZF5 (Homo sapiens, UniProt Q86VK4 217-366); assay: fluorescence polarization
T1 sequence: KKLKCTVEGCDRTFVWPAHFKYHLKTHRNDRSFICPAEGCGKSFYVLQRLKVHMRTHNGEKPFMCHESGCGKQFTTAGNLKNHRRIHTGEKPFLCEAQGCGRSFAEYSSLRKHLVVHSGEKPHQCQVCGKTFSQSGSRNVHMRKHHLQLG

[2] = biological target: T1, GST-ZNF410 ZF1-ZF5; assay: fluorescence polarization; remark: listed apart in the source

Binder	Kd [1] [nM]	binding result [2]
B1	22	
B2		no binding
